Measured values reported in the DeepSol protein solubility set.

Assay: soluble on expression in E. coli; label from the status in PepcDB or PDB records

Sequence	soluble on expression in E. coli
MSLQSSVASGLSLNPEQLAVMAVGSGGVVVSLSAPAETVIVIVEHLDHKEEVIVQGREIVPSMDGHFDTIQELNSRFTESAPREKIEIGNRERPFKLHVVNVGDSRAMLVTRESYAALTRDHVPDDPGELRRIQETGDEGKKDNPSPSPITAKPDVRYFYATWEDVLILHSDGLLAESDRWEEVAGAALQCMESEPRIRGVATCLVQQAYRRGSTDNITALVSTFQKPSLNEGHHHHHH	soluble
MGALLKGRIYTMSVKTLKRTITAVAILAASVMSSSAWSNDLKEIRERGVLRHIGVPYANFVSYIEQGEMHTLTGLDVDIVKGFASSLGVRYEYVPAQWSDMVGKLTGQDVQYRHNRAVVGGSVPIEGDLIANGVTILDWREEVLDFSQDYFPSAVWLVSRTDSSLSPIKPSGSIDEDVKTVKELIDGREVLALEHSCLDPNLYDLYDTGAKVILPDGKRLLNEMVPAIMKNDAESTLLDVADTLIALEKWPG	not soluble
TEKTKAVETTDVALAIDTLVQNGLKALDEMRQLNQEQVDYIVAKASVAALDAHGELALHAVEETGRGVFEDKATKNLFACEHVVNNMRHTKTVGVIEEDDVTGLTLIAEPVGVVCGITPTTNPTSTAIFKSLISLKTRNPIIFAFHPSAQESSAHAARIVRDAAIAAGAPENCVQWIEQPSIDATNALMNHDGIATILATGGNAMVKAAYSCGKPALGVGAGNVPAYVEKSANIRQAAHDIVMSKSFDNGMVCASE	not soluble
MGSDKIHHHHHHMSLSNMQVFNDYIMPATIKSLDQMIDKFNAGSAGAIVLSSEGMTGDFMRESFFASLAAAQRRVNRKGANGAASATDLSELTGSKVKIAGGFGPVRYEPSQMTWLQRPTQQGVLAASTAFAELLLQDQLNTAIAALVAALSNNAAVTNDVSGSAGMTYGAINSAHAKFGDASGQIVANVMTGTVAHKLIGDNLTNGQRLFTAGNVNVIDILGKAVIVTDAPALYEAGTPNKSKVLGLVPGAATVGNTSDIITNVETTNGKERIETTFQADYSFSLGLKGYGWDEANGGASPTDAEIATGTNWDKVAEFDKMTAGVIAVADADQ	not soluble
MNTGHDGALAYDEPIYLSDGNIINIGEFVDKFFKKYKNSIKKEDNGFGWIDIGNENIYIKSFNKLSLIIEDKRILRVWRKKYSGKLIKITTKNRREITLTHDHPVYISKTGEVLEINAEMVKVGDYIYIPKNNTINLDEVIKVETVDYNGHIYDLTVEDNHTYIAGKNEGFAVSASSGTLHHHHHH	soluble
MGSVVPHYSWFSGITQFQKGKEFQFAEGQGVPIANGIPASEQKGYWYRHNRRSFKTPDGQQKQLLPRWYFYYLGTGPHAGASYGDSIEGVFWVANSQADTNTRSDIVERDPSSHEAIPTRFAPGTVLPQGFYVEGSGRS	soluble
MHGLQDDPDLQALLKGSQLLKVKSSSWRRERFYKLQEDCKTIWQESRKVMRSPESQLFSIEDIQEVRMGHRTEGLEKFARDIPEDRCFSIVFKDQRNTLDLIAPSPADAQHWVQGLRKIIHHSGSMDQRQK	soluble
MTLNDKYPFTDEDQAIINSYKAVVDGVSALIGEHCEIVLHSLENIEHSAICIANGHNTNRQVGSPITDLALRSLRNMQSESVSKPYFTRAKGSVLMKSVTIAIRNKTQRIIGLLCININLDVPVSQFLQCFMLTEHTNETSSVNFANSVEDLVAQTIEKTIEEVNADRAVANNTKNRQIVLSLYEKGIFDIKDAINLVAERLDISRHTVYLYIRQIKQEQE	not soluble
MSLQRPKVKGMDQTLATSRKTSNACNVLALCTRDNPAILTIAHRGFWTATAENSLASVRAAVAAGVEMIEIDTQATADGRLVVIHDETLDRTTTGKGTVSALPFEVVRAAKLKAGAGGDGADVTDECVPTLEEVLEEARGRITVNIDTKFTRDLPQVMETVLRLGVEDQVLVKTDVDPEAERFEVLGSHWFGRIPHMPMFPVRKGKFAEDLRRIEALKAPMIEVKFTDIADLAEGRAEMERQNIRLWINSLDVSHCLDFNDTRALSNPEAVWGALAEAGTGAIQTDEVEAFTAWLKAGAGETGRAWTREGHHHHHH	soluble
MGSDKIHHHHHHMHVDIELPLGRATALQRLRAQGFCVLTPAALETLTGMPLDAFDMMLPYWEELAPDLHLKDGGHYRYRRHGCFMQTLQPGQLETVQHRAHWQPTTYNALHGGMERWFEPLSNEMIHLPSWSALLVALGELFAKLRAPQGGRWYIEAHPFRIDTEGGVGRPTPEGAHRDGVDFVAVVFIGRQGVRGGETRVFDAAGPQGVRFTLEQPWTVLLLDDQQVIHESTPLLPLDPADPAVPAHRDTLVLTYRSGGFQAPA	not soluble
MNKILIAAASSGAGKTTVTLGIMQALKKRGFAVQPFKVGPDYIDTNYHQAITGVASINLDSFLIDDDEMLASLFQKHGESADISVIEGVMGLFDGLGTDRDNASTSFIAKCTKTPVILVVDGKAISTSAAAIVDGFNRFDPELKIAGVIINRVASENHFSLIKGAIERYTDVPVLGYLPKNAAVALPERHLGLVPQEEMTELEAKWELLSDLITTHVDLDKLLEISKSSENLSTSKAQMKVADFSGLRVAYALDAAFHFYYQDNLDLIRLTGAELIPFSPLEDNEVPEADFIYIGGGFPEIFAKQLNDNRSMRKSILAAHEKGIPIYAECGGLMYLGSSLEMEGKQYEMVGVFNGISKMTTRLRKFGYCIAEPLEETLIGKKGMSIRGHEFHHSVFETTETACMKLSKKRDGEIVKEWRGGYQKGNTFASYLHIHFYQNPAILMQMFGAGKRLEHHHHHH	soluble
MMKQSFLANERIYLRAVEPEDLDLMYEMENDPSMWDISSFTVPYSRFVLKQYIEGSQSDMFADKQLRLMIMRRKDNCTLGTVDITDFVPLHSRGAVGIAVHSNYRQEGYASDALKLLCEYAFNFLFIKQLYAHIAVDNEPSLRLFNSCGFTQCGVLKEWLLTHEGYKDAVLVQCMNPKR	not soluble
APRTLYDKIWDDHVVHQSEDGTCLLYIDRHLVHEVTSPQAFEGLRMTGRKVRAPEKTIAVPDHNVPTTEGRDTKIDNEESRIQVEALDKNARDFGINYYPVSDIRQGIVHIVGPEQGWTLPGMTVVCGDSHTATHGAFGALAHGIGTSEVEHVLATQTLIQKKSKN	not soluble
MSLDGKVAVLTGTKKIEVKKLPVPEINDDEMLVKVEGCGVCGTDVFEYKSDPFNYIPVNLGHEGTGEIVKMGKNVKNDWTGKTLKIGDKIVCGPAANGDIYGLMGGEKHYFNGWLANYMVINPNSVVFNVSDMPLDLRILIEPAAVSCHAVAKSKEIYTFKHSSSVVVQGVGPIGLMVIAQMKTLGVRHIIAVDGNASRLELAKKIGATATVNIDDGDSVAAVKELTDGKGANFVFQCTGSTKGASTAWKFLTDHGGICEVGFFVDNGEATYNPHFDVCMPETKITGSWAYVPEDWVEATEFLRETKDEGLDMTQLITNVYPLDQMNEAMAKNMSGTGVKIVYKNNEGHHHHHH	soluble
MLPPPRREPDWSAQAFRWHRQGLAGWLEAVHEPHAVALDRLACVDAQREQLLANTRQFVAGLPANNVLLTGARGTGKSSLVKALLPEFGRDGLRLIEIDREHLADLPQLVELLSGRPERFVLFCDDLSFEHGDAGYKALKSALDGGLARRCDNLLVYATSNRRHLLPEQMSENREGWLRDGEIHPGEAVEEKVSLSDRFGLWLSFYPFDQDAYLAAVREWLGHFGLKYGDKAERAALQWSLSRGSRSGRVAWQFACHWAGSQKLARRSGKKLEHHHHHH	not soluble
MGHHHHHHSHNSARADVYPDGFKGHMLTKSEKNQLLAIASSLFVAFQLRAQHFQGNSRMPVIKPDIANWELSVKLHDKVHTVVASNNGSVFLVEVDGSKLNVTSTWNLFALIVCQR	not soluble
MDRIRNDGVFYEIAYAESLMPATRKNTLFNGRVLIRSLKSKNIIFSSGAETMLDLRSPVDVMNMSLLWGVANNEARKMISGFPKNLLLQAECRGTGNGDVCSMKLSDAEKLAGNGEEEEQDGASEEKVVVGKEEEAEKVKAPPIEVRMNHSQYQALLQATKNANDMMKKIKASKAASSS	not soluble
MVQEIEQWLRRHQVFTEPAYLGETAILLGQQFILSPYLVIYRIEAKEMIICEFRRLTPGQPRPQQLFHLLGLLRGIFVHHPQLTCLKMLIITDVLDEKKAMLRRKLLRILTVMGATFTQLDGDNWTVLSAEHLIQRRF	not soluble
MSDDEAAVPGNKPIRLPKKAAKVKNKAPAQLQITAEQLLREAKERELELIPPAPKTKITDPDELKEYQRKKRKEFEDGIRKNRMQLANWIKYGKWEESIGEIQRARSVFERALDVDHRSISIWLQYAEMEMRCKQINHARNVFDRAITIMPRAMQFWLKYSYMEEVIENIPGARQIFERWIEWEPPEQAWQTYINFELRYKEIDRARSVYQRFLHVHGINVQNWIKYAKFEERNGYIGNARAAYEKAMEYFGEEDINETVLVAFALFEERQKEHERARGIFKYGLDNLPSNRTEEIFKHYTQHEKKFGERVGIEDVIISKRKTQYEKMVEENGYNYDAWFDYLRLLENEETDREEVEDVYERAIANIPPHSEKRYWRRYIYLWINYALYEELVAKDFDRARQVYKACIDIIPHKTFTFAKVWIMFAHFEIRQLDLNAARKIMGVAIGKCPKDKLFRAYIDLELQLREFDRCRKLYEKFLESSPESSQTWIKFAELETLLGDTDRSRAVFTIAVQQPALDMPELLWKAYIDFEIACEEHEKARDLYETLLQRTNHIKVWISMAEFEQTIGNFEGARKAFERANQSLENAEKEERLMLLEAWKECETKSGDQEALKRVETMMPRRVKKRRQIQTEDGVDAGWEEYFDYIFPQDQAAKGSFKLLEAAARWKREREEAAARAAQELDAPIPEGDDDEEKEEAGKDAEEKVREGDSDTDLSESSSSSDSESSSSSSSDSSDSSDDDEDK	not soluble
MSLSRPRSVADHPMINPRLIALPDYPFQRLATLLAGVAPGADPLALSVGEPQHPTPALAGLELARHGDQWRRYPPAAGNERWKAAVTAWLTRRYGLPAAMIDPHAVIPASGTREALYMLGQVLTDGRGEAGERPLVVMPDPLYLPYLGAARMNGATILAVPGSEEGDFLPDIAGLPAATLERAAAVFVCSPANPQGSIVSLESWKTLVGLARRHGFVLVADECYSEIYDDQPPPGVLEACRDLGGSLKNVLVLNSLSKRSNGAGLRSGLIAGDRALIDAFLRLRAYASAGMPLPIMEASAALWDDETHVEANRALYREKIDLAAARLKGMLGFRRPPGGFFLWLDTTPWGETGEQATLRLWRDHGLKVLPGAYMTANPDAGDNPARNRLRLALVHDGPVVARALDRLVAASPHEGHHHHHH	soluble
MNAFDRARQSAIAAAREARGTYRNGLVTPTAGVAPGMTQANLIALPRDWAYDFLLYAQRNPKACPILDVSDAGSPTTLLAEGSDLRTDIPMYRIWRDGKLAEEVSDATQAWAEHDDMVAFLIGCSFTFETPLQEAGIEVRHITDGCNVPMYRTNRACRPAGRLHGEMVVSMRPIPADRVAEASAISGRYPSVHGAPVHIGEPGRLGINDLSRPDFGDAVSIKPGEVPVFWACGVTPQAAVMASGVPFAITHSPGYMFITDVPDSTYHVLEHHHHHH	soluble
MRVHKVKFLNQHELTKLLALLDLDHGLDWDYFLLLIAKTGLRFGEALGVTPMDFDMAKLTLTINKTWDYKSATGSFAETKNTASVRKVPLDWQVAMQFAAQIKSLPQDKPIFVTDGQRVYNETANDILERKCKRASIPVISIHGLRHTHASLLLYAGVSVGSVARRLGHANMSTTQKTYLHILEHHHHHH	not soluble
MSLATESDETSLDFPDHALERVRDILRLRRNFDISSYKDKYLKRRIAIRVRATRSVTADAYCDLVARNERELELLLKGLTIHVSQFFRNSSTFEALRGTVLPAIFDRLRREGRDSATFWSVGCASGEEPYSLAIILRDSFRESLKEFKVSLVATDIDGGILDAARAGIYSPERLAEVPAEVKDRYFRPMGERFVLDPTIREMVDFRRSDLFDPESSVESDLILCRNVLIYFERSEQARILRGFVSSLCTGGVLVLGKAETLVAEVRQRFTTLCPMERIYQKNRFSVYEGHHHHHH	soluble
